Results reported in patent US20210403546A1 (LUDWIG INSTITUTE FOR CANCER RESEARCH, published 2021).

Experiments:
human recombinant TGF-b1 [1] = target: T1, human recombinant TGF-b1 (human, UniProt P01137 279-390); test: SPR (Biacore T200), 10 nM Fab over amine-coupled TGFb1 (492 RUs); reference of the ranking
T1 construct: also called TGF-β1; hTGF-β1
Method: FIG. 27 provides Biacore analysis of the new mutant variant antibodies and compares the new mutants versus parent variant 13A1-2F and versus mu13A1. Selected variants have different monovalent (huIgG1 stabilized Fab format). Biacore binding kinetics, range from lower to higher than the parental mouse 13A1 (mu13A1, hybrid with mouse VK/VH and huCK/huCH1). The data presented is ka, kd and apparent KD. TGFb1 (chip): 492 Rus, Fabs: 10 nM, Flow rate: 30 ul/min, Contact time: 510s, Diss. Time: 600s. Quality: Chi(2)<=1% Rmax and U score <=5. Data is presented for mutant variant antibodies 13A1_AF, 13A1_AG, 13A1_AH, 13A1_BF, 13A1_BG, 13A1_BH, 13A1_CF, 13A1_CG, 13A1_CH, 13A1_DF, 13A1_DG, 13A1_DH, 13A1_EF, 13A1_EG and 13A1_EH.
SPR binding analysis of Fabs: Experiments were performed using the Biacore T200 equipped with the Series S sensor chip CMS (GE Healthcare, cat. #BR-1005-30). The instrument temperature was set at 25° C. for all steps in the analysis while the compartment temperature was set at 10° C. All the assays were performed using the running buffer HBS-EP+ 1×. Recombinant TGF-β1 (Biocat, cat. #TG1-H4212-50 ug-AC) was immobilized with the standard amine-coupling chemistry using a solution of the ligand at 1 ug/mL in acetate, pH 4.5. Recombinant TGF-β1 was injected for several minutes to achieve a target density of 492 RUs. […]

human recombinant TGF-b1 [2] = target: T1, human recombinant TGF-b1; test: ELISA, soluble scFv on plate-coated TGFb isoforms
Method: (§1) To perform the ELISA a 96-well maxisorp Nunc-immunoplate (Thermo Scientific, cat. #2022-10) was coated with 50 μl/well of human recombinant TGF-b1 (Acrobiosystems, cat. #TG1-H4212), TGF-b2 (R&D Systems, cat. #302-B2-010) and human recombinant TGF-b3 (Shenandoah Biotechnology, cat. #100-109) at 500 ng/ml in PBS at 4° C. overnight. Wells were blocked by the direct addition of 230 μl of block solution (5% skimmed milk/0.05% Tween20 in PBS) without first washing the plate. Blocking was carried out for 45 min with gentle agitation. Concurrently, the bacterial cultures containing the expressed scFv and the rescued phage were blocked by the direct addition of 120 μl of block solution. The blocked maxisorp plate was washed 3× with PBST (PBS+0.1% Tween20) before applying 150 μl of blocked scFv or phage culture to the wells. Incubation was performed for 1 h at room temperature with gentle agitation before washing of the wells with 4×PBST.
For the scFv ELISA, 100 μl of primary mouse 9E10 anti-cmyc Ab diluted 1/1000 in PBS+1% BSA was added to wells, followed by a 1 h incubation at room temperature with gentle agitation. […] The ELISA was developed by the addition of 100 μl/well of TMB substrate (ThermoFischer Scientific, cat. #34021), stabilized with 50 μl/well of stop solution (2N sulfuric acid) and absorbance signals read at 450 nm and 620 nm.

human recombinant TGF-b1 [3] = target: T1, human recombinant TGF-b1; test: TGFb specificity ELISA, HEK293-6E supernatant
human recombinant TGF-b1 [4] = target: T1, human recombinant TGF-b1; test: phage ELISA on plate-coated TGF-b1, anti-fd detection
Method: as §1
For the phage ELISA, 100 μl of primary rabbit anti-fd bacteriophage Ab (Sigma, cat. #B7786) diluted 1/1000 in PBS+1% BSA was added to wells followed by a 1 h incubation at room temperature with gentle agitation. The plate was washed 4× with PBST before the addition of 100 μl of secondary mouse anti-rabbit IgG (Y-chain specific) HRP conjugate (Sigma, cat. #A1949) diluted 1/15000 in PBS+1% BSA. […]

T1 sequence (P01137 279-390 limits assumed): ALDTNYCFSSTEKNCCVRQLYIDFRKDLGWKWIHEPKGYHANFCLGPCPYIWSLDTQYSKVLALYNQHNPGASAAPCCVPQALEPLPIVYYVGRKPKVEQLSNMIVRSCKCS

B1: 13A1 mouse parental hybrid stabilized Fab (mu13A1) (Fab, V domains shown)
VH: EVQLQQSGTVLARPGASVKMSCKTSGYTFTNYWMHWVRQRPGQGLEWIGTIYPGNSDTNYNQKFKDKAKLTAVTSATTAYMELSSLTNEDSAVYFCTREDSRSLYYNGWDYFDYWGQGTTLTVSS
VL: not shown
notes: also called parental mouse Fab [chimeric, mVHhCH1/mVKhCK]; LCR13A1_VK(murine) + LCR13A1_VH(murine)
Human recombinant TGF-b1 [1]
  binding result: binds

B2: 13A1_GLv1_scFv (CDR-grafted scFv, IGKV7-3*01/IGHV1-46*01) (scFv)
scFv: DIVLTQSPASLAVSPGQRATITCRASESVDNYGISFLNWYQQKPGQPPKLLIYAASNQGSGVPARFSGSGSGTDFTLTINPVEADDTANYYCQQSKEVPRTFGGGTKLEIKRTVAARQEGGSGEGGSGESNAAAQVQLVQSGAEVKKPGASVKVSCKASGYTFTNYWMHWVRQAPGQGLEWIGTIYPGNSDTNYNQKFKGRVTMTRDTSTSTVYMELSSLRSEDTAVYYCTREDSRSLYYNGWDYFDYWGQGTLVTVSSASTKAS
notes: Orientation VK-linker-VH; expressed in E. coli from pCHV101; also called LCR13A1_Glv1 scFv
Human recombinant TGF-b1 [2]
  binding result: binds

B3: 13A1_Glv1 (graft) human IgG1 (antibody, V domains shown)
VH: QVQLVQSGAEVKKPGASVKVSCKASGYTFTNYWMHWVRQAPGQGLEWIGTIYPGNSDTNYNQKFKGRVTMTRDTSTSTVYMELSSLRSEDTAVYYCTREDSRSLYYNGWDYFDYWGQGTLVTVSS
VL: DIVLTQSPASLAVSPGQRATITCRASESVDNYGISFLNWYQQKPGQPPKLLIYAASNQGSGVPARFSGSGSGTDFTLTINPVEADDTANYYCQQSKEVPRTFGGGTKVEIK
notes: also called LCR13A1_GLv1; grafted human IgG1 13A1
Human recombinant TGF-b1 [3]
  binding result: binds

B4: LCR13A1 Phage (murine 13A1 scFv fused to pIII on filamentous phage) (scFv)
scFv: DIVLTQSPASLAVSLGQRATISCRASESVDNYGISFLNWFQQKPGQPPKLLIYAASNQGSGVPARFSGSGSGTDFSLNIHPMEEDDTGMYFCQQSKEVPRTFGGGTKLEIKRTVAARQEGGSGEGGSGESNAAAEVQLQQSGTVLARPGASVKMSCKTSGYTFTNYWMHWVRQRPGQGLEWIGTIYPGNSDTNYNQKFKDKAKLTAVTSATTAYMELSSLTNEDSAVYFCTREDSRSLYYNGWDYFDYWGQGTLVTVSSASTKAS
notes: not shown: pIII coat protein of filamentous bacteriophage (fusion partner from phagemid pCHV101)
Human recombinant TGF-b1 [4]
  binding result: binds
